Patent US20260242419A1, “A CYCLIC PEPTIDE FOR TRAPPING INTERLEUKIN-1 BETA” (Merck Sharp & Dohme LLC, priority 2023, published 2026)
Starred links: 1 amine or outer side, 2 acyl side, 3 side chain; linkers in the order of their positions; H or OH if unused. Non-standard residues stand in square brackets, D forms with d. Residues, ends and D or L forms follow the SMILES beside them. 3Pal4Ph4CO2H = 4-[5-[(2S)-2-amino-2-carboxy-ethyl]-2-pyridyl]benzoic acid, O=C([C@H](Cc1ccc(-c2ccc(C(=O)[*:3])cc2)nc1)N[*:1])[*:2]; TyrEtNAc = (2S)-3-[4-(2-acetamidoethoxy)phenyl]-2-amino-propanoic acid, CC(=O)NCCOc1ccc(C[C@H](N[*:1])C(=O)[*:2])cc1; dProc3Bn = (2R,3S)-3-benzylpyrrolidine-2-carboxylic acid, O=C([C@H]1[C@@H](Cc2ccccc2)CCN1[*:1])[*:2]; 3PyridaAla = (2S)-2-amino-3-pyridazin-3-yl-propanoic acid, O=C([C@H](Cc1cccnn1)N[*:1])[*:2]; Phe(4-(cis-4-COOH-cHex)) = N[C@@H](Cc1ccc([C@H]2CC[C@@H](C(=O)O)CC2)cc1)C(=O)O; dPro(4R-(4-pyridylmethyl)) = O=C(O)[C@H]1C[C@@H](Cc2ccncc2)CN1; Trp(βS-Me,4-F) = C[C@@H](c1c[nH]c2cccc(F)c12)[C@H](N)C(=O)O; Bip(4'-COOH) = N[C@@H](Cc1ccc(-c2ccc(C(=O)O)cc2)cc1)C(=O)O; Ala(1-bicyclo(1.1.1)pentyl) = N[C@@H](CC12CC(C1)C2)C(=O)O; dPro(4R-Bzl(4-F)) = O=C(O)[C@H]1C[C@@H](Cc2ccc(F)cc2)CN1; dPro(3S-(4-F-Bn)) = O=C(O)[C@@H]1NCC[C@@H]1Cc1ccc(F)cc1; X7 = Nc1cc(-c2ccc(C[C@H](N[*:1])C(=O)[*:2])cc2)ccn1; Ala(pyrimidin-5-yl) = N[C@@H](Cc1cncnc1)C(=O)O; Phe(4-CONH2) = NC(=O)c1ccc(C[C@H](N)C(=O)O)cc1; Phe(4-COOH) = N[C@@H](Cc1ccc(C(=O)O)cc1)C(=O)O; Ala(2-pyrazinyl) = N[C@@H](Cc1cnccn1)C(=O)O; Pro(cis-4-F) = O=C(O)[C@@H]1C[C@H](F)CN1; AEF = NCCOc1ccc(C[C@H](N)C(=O)O)cc1; d(αMeD) = C[C@@](N)(CC(=O)O)C(=O)O; 4Pal = N[C@@H](Cc1ccncc1)C(=O)O; NMeDab = CN[C@@H](CCN)C(=O)O; αMeK = C[C@](N)(CCCCN)C(=O)O; αMeS = C[C@](N)(CO)C(=O)O; Api = NC1(C(=O)O)CCNCC1; Dab = NCC[C@H](N)C(=O)O; Dap = NC[C@H](N)C(=O)O; Aib = CC(C)(N)C(=O)O

B1: SEQ ID NO: 104 (peptide)
peptide: cyclo([Phe(4-(cis-4-COOH-cHex))][Ala(1-bicyclo(1.1.1)pentyl)][Phe(4-COOH)]G[Pro(cis-4-F)][Trp(βS-Me,4-F)][αMeS]EW[αMeK][Ala(pyrimidin-5-yl)]Q[Dab]G[dPro(4R-Bzl(4-F))])
SMILES: C[C@@H](c1c[nH]c2cccc(F)c12)[C@@H]1NC(=O)[C@@H]2C[C@H](F)CN2C(=O)CNC(=O)[C@H](Cc2ccc(C(=O)O)cc2)NC(=O)[C@H](CC23CC(C2)C3)NC(=O)[C@H](Cc2ccc([C@H]3CC[C@@H](C(=O)O)CC3)cc2)NC(=O)[C@H]2C[C@@H](Cc3ccc(F)cc3)CN2C(=O)CNC(=O)[C@H](CCN)NC(=O)[C@H](CCC(N)=O)NC(=O)[C@H](Cc2cncnc2)NC(=O)[C@](C)(CCCCN)NC(=O)[C@H](Cc2c[nH]c3ccccc23)NC(=O)[C@H](CCC(=O)O)NC(=O)[C@](C)(CO)NC1=O
B2: SEQ ID NO: 103 (peptide)
peptide: cyclo([Phe(4-(cis-4-COOH-cHex))][Ala(1-bicyclo(1.1.1)pentyl)][Phe(4-COOH)]G[Pro(cis-4-F)][Trp(βS-Me,4-F)][αMeS]EW[Aib][Ala(pyrimidin-5-yl)]Q[Dab]G[dPro(4R-Bzl(4-F))])
SMILES: C[C@@H](c1c[nH]c2cccc(F)c12)[C@@H]1NC(=O)[C@@H]2C[C@H](F)CN2C(=O)CNC(=O)[C@H](Cc2ccc(C(=O)O)cc2)NC(=O)[C@H](CC23CC(C2)C3)NC(=O)[C@H](Cc2ccc([C@H]3CC[C@@H](C(=O)O)CC3)cc2)NC(=O)[C@H]2C[C@@H](Cc3ccc(F)cc3)CN2C(=O)CNC(=O)[C@H](CCN)NC(=O)[C@H](CCC(N)=O)NC(=O)[C@H](Cc2cncnc2)NC(=O)C(C)(C)NC(=O)[C@H](Cc2c[nH]c3ccccc23)NC(=O)[C@H](CCC(=O)O)NC(=O)[C@](C)(CO)NC1=O
B3: SEQ ID NO: 10 (peptide)
peptide: cyclo([TyrEtNAc][4Pal][Phe(4-COOH)]G[Pro(cis-4-F)][Trp(βS-Me,4-F)][Aib]EW[Aib][Ala(pyrimidin-5-yl)]Q[Dab]G[dPro(4R-Bzl(4-F))])
SMILES: CC(=O)NCCOc1ccc(C[C@@H]2NC(=O)[C@H]3C[C@@H](Cc4ccc(F)cc4)CN3C(=O)CNC(=O)[C@H](CCN)NC(=O)[C@H](CCC(N)=O)NC(=O)[C@H](Cc3cncnc3)NC(=O)C(C)(C)NC(=O)[C@H](Cc3c[nH]c4ccccc34)NC(=O)[C@H](CCC(=O)O)NC(=O)C(C)(C)NC(=O)[C@H]([C@@H](C)c3c[nH]c4cccc(F)c34)NC(=O)[C@@H]3C[C@H](F)CN3C(=O)CNC(=O)[C@H](Cc3ccc(C(=O)O)cc3)NC(=O)[C@H](Cc3ccncc3)NC2=O)cc1
B4: SEQ ID NO: 105 (peptide)
peptide: cyclo([Phe(4-(cis-4-COOH-cHex))][Ala(1-bicyclo(1.1.1)pentyl)][Phe(4-COOH)]G[Pro(cis-4-F)][Trp(βS-Me,4-F)][Aib]EW[Api]SQ[Dab]G[dPro(4R-Bzl(4-F))])
SMILES: C[C@@H](c1c[nH]c2cccc(F)c12)[C@@H]1NC(=O)[C@@H]2C[C@H](F)CN2C(=O)CNC(=O)[C@H](Cc2ccc(C(=O)O)cc2)NC(=O)[C@H](CC23CC(C2)C3)NC(=O)[C@H](Cc2ccc([C@H]3CC[C@@H](C(=O)O)CC3)cc2)NC(=O)[C@H]2C[C@@H](Cc3ccc(F)cc3)CN2C(=O)CNC(=O)[C@H](CCN)NC(=O)[C@H](CCC(N)=O)NC(=O)[C@H](CO)NC(=O)C2(CCNCC2)NC(=O)[C@H](Cc2c[nH]c3ccccc23)NC(=O)[C@H](CCC(=O)O)NC(=O)C(C)(C)NC1=O
B5: SEQ ID NO: 107 (peptide)
peptide: cyclo([Phe(4-(cis-4-COOH-cHex))][Ala(1-bicyclo(1.1.1)pentyl)][Phe(4-COOH)]G[Pro(cis-4-F)][Trp(βS-Me,4-F)][αMeS]EW[Aib]SQ[Dab]G[dPro(4R-Bzl(4-F))])
SMILES: C[C@@H](c1c[nH]c2cccc(F)c12)[C@@H]1NC(=O)[C@@H]2C[C@H](F)CN2C(=O)CNC(=O)[C@H](Cc2ccc(C(=O)O)cc2)NC(=O)[C@H](CC23CC(C2)C3)NC(=O)[C@H](Cc2ccc([C@H]3CC[C@@H](C(=O)O)CC3)cc2)NC(=O)[C@H]2C[C@@H](Cc3ccc(F)cc3)CN2C(=O)CNC(=O)[C@H](CCN)NC(=O)[C@H](CCC(N)=O)NC(=O)[C@H](CO)NC(=O)C(C)(C)NC(=O)[C@H](Cc2c[nH]c3ccccc23)NC(=O)[C@H](CCC(=O)O)NC(=O)[C@](C)(CO)NC1=O
B6: SEQ ID NO: 102 (peptide)
peptide: cyclo([Bip(4'-COOH)][4Pal][Phe(4-COOH)]G[Pro(cis-4-F)][Trp(βS-Me,4-F)][Aib]EW[Aib][3PyridaAla]Q[Dab]G[dPro(4R-Bzl(4-F))])
SMILES: C[C@@H](c1c[nH]c2cccc(F)c12)[C@@H]1NC(=O)[C@@H]2C[C@H](F)CN2C(=O)CNC(=O)[C@H](Cc2ccc(C(=O)O)cc2)NC(=O)[C@H](Cc2ccncc2)NC(=O)[C@H](Cc2ccc(-c3ccc(C(=O)O)cc3)cc2)NC(=O)[C@H]2C[C@@H](Cc3ccc(F)cc3)CN2C(=O)CNC(=O)[C@H](CCN)NC(=O)[C@H](CCC(N)=O)NC(=O)[C@H](Cc2cccnn2)NC(=O)C(C)(C)NC(=O)[C@H](Cc2c[nH]c3ccccc23)NC(=O)[C@H](CCC(=O)O)NC(=O)C(C)(C)NC1=O
B7: SEQ ID NO: 100 (peptide)
peptide: cyclo([3Pal4Ph4CO2H][Ala(1-bicyclo(1.1.1)pentyl)][Phe(4-COOH)]G[Pro(cis-4-F)][Trp(βS-Me,4-F)][Aib]EW[Aib][Dap]Q[Dab]G[dPro(4R-Bzl(4-F))])
SMILES: C[C@@H](c1c[nH]c2cccc(F)c12)[C@@H]1NC(=O)[C@@H]2C[C@H](F)CN2C(=O)CNC(=O)[C@H](Cc2ccc(C(=O)O)cc2)NC(=O)[C@H](CC23CC(C2)C3)NC(=O)[C@H](Cc2ccc(-c3ccc(C(=O)O)cc3)nc2)NC(=O)[C@H]2C[C@@H](Cc3ccc(F)cc3)CN2C(=O)CNC(=O)[C@H](CCN)NC(=O)[C@H](CCC(N)=O)NC(=O)[C@H](CN)NC(=O)C(C)(C)NC(=O)[C@H](Cc2c[nH]c3ccccc23)NC(=O)[C@H](CCC(=O)O)NC(=O)C(C)(C)NC1=O
B8: SEQ ID NO: 106 (peptide)
peptide: cyclo([Phe(4-(cis-4-COOH-cHex))][Ala(1-bicyclo(1.1.1)pentyl)][Phe(4-COOH)]G[Pro(cis-4-F)][Trp(βS-Me,4-F)][Aib]SW[Aib]SQ[Dab]G[dPro(4R-Bzl(4-F))])
SMILES: C[C@@H](c1c[nH]c2cccc(F)c12)[C@@H]1NC(=O)[C@@H]2C[C@H](F)CN2C(=O)CNC(=O)[C@H](Cc2ccc(C(=O)O)cc2)NC(=O)[C@H](CC23CC(C2)C3)NC(=O)[C@H](Cc2ccc([C@H]3CC[C@@H](C(=O)O)CC3)cc2)NC(=O)[C@H]2C[C@@H](Cc3ccc(F)cc3)CN2C(=O)CNC(=O)[C@H](CCN)NC(=O)[C@H](CCC(N)=O)NC(=O)[C@H](CO)NC(=O)C(C)(C)NC(=O)[C@H](Cc2c[nH]c3ccccc23)NC(=O)[C@H](CO)NC(=O)C(C)(C)NC1=O
B9: SEQ ID NO: 1 (peptide)
peptide: cyclo([Bip(4'-COOH)][4Pal][Phe(4-COOH)]G[Pro(cis-4-F)][Trp(βS-Me,4-F)][Aib]EW[Aib]FQSG[dProc3Bn])
SMILES: C[C@@H](c1c[nH]c2cccc(F)c12)[C@@H]1NC(=O)[C@@H]2C[C@H](F)CN2C(=O)CNC(=O)[C@H](Cc2ccc(C(=O)O)cc2)NC(=O)[C@H](Cc2ccncc2)NC(=O)[C@H](Cc2ccc(-c3ccc(C(=O)O)cc3)cc2)NC(=O)[C@H]2[C@@H](Cc3ccccc3)CCN2C(=O)CNC(=O)[C@H](CO)NC(=O)[C@H](CCC(N)=O)NC(=O)[C@H](Cc2ccccc2)NC(=O)C(C)(C)NC(=O)[C@H](Cc2c[nH]c3ccccc23)NC(=O)[C@H](CCC(=O)O)NC(=O)C(C)(C)NC1=O

Biological target: Recombinant human IL-1β (BioLegend 579404) (human, UniProt P01584 117-269)
Experiment: cell-based or functional assay
Details: not given

Row | MRC5 IC50 [nM] | Molecule
1 | 0.085 | B1
2 | 0.021 | cyclo([Bip(4'-COOH)][4Pal][Phe(4-COOH)]G[Pro(cis-4-F)][Trp(βS-Me,4-F)][Aib]EW[Aib][Ala(2-pyrazinyl)]Q[Dab]G[dPro(4R-Bzl(4-F))]) [SEQ ID NO: 101]
3 | 0.06 | B2
4 | 0.027 | B3
5 | 0.083 | B4
6 | 0.063 | B5
7 | 0.021 | B6
8 | 0.074 | B7
9 | 0.031 | B8
10 | 0.093 | B9

Biological target: T1, IL-1β (Homo sapiens, UniProt P01584)
T1 construct: purchased BioLegend 579404
T1 sequence (P01584 117-269): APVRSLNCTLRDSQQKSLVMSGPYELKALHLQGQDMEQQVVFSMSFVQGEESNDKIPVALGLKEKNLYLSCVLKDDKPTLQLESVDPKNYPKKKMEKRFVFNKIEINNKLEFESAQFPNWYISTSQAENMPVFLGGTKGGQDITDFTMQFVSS
Experiment: IL-6 assay in MRC5 cells: inhibition of IL-1β induced IL-6 secretion (AlphaLISA)
Assay type: cell-based
Details: inhibition of IL-1β induced IL-6 secretion in MRC5 cells; read-out: MRC5 IC50
How it was run: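 Compound was pre-incubated 1 h at ambient temperature with recombinant human IL-1β at 2λ EC80 before adding human lung fibroblast MRC5 cells (3000/well) in EMEM with 0.025% BSA. After overnight culture at 37 °C, 5% CO2, secreted IL-6 in conditioned medium was measured by AlphaLISA; IC50 from 4-parameter logistic fits.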

Row | IC50 [nM] | Molecule
11 | 0.048 | CCO[C@H](C)[C@@H]1NC(=O)C(C)(C)NC(=O)[C@H](Cc2c[nH]c3ccccc23)NC(=O)[C@H](CO)NC(=O)C(C)(C)NC(=O)[C@H]([C@@H](C)c2c[nH]c3cccc(F)c23)NC(=O)[C@@H]2C[C@H](F)CN2C(=O)CNC(=O)[C@H](Cc2ccc(C(N)=O)cc2)NC(=O)[C@H](Cc2ccncc2)NC(=O)[C@H](Cc2ccc(OCCNC(C)=O)cc2)NC(=O)[C@H]2C[C@@H](Cc3ccncc3)CN2C(=O)CNC(=O)[C@H](CCN)N(C)C(=O)[C@H](CCC(N)=O)NC1=O [Example 382] (cyclo([AEF](Ac)[4Pal][Phe(4-CONH2)]G[Pro(cis-4-F)][Trp(βS-Me,4-F)][Aib]SW[Aib]T(Et)Q[NMeDab]G[dPro(4R-(4-pyridylmethyl))]))
12 | 0.023 | C[C@@H](c1c[nH]c2cccc(F)c12)[C@@H]1NC(=O)[C@@H]2C[C@H](F)CN2C(=O)CNC(=O)[C@H](Cc2ccc(C(=O)O)cc2)NC(=O)[C@H](Cc2ccncc2)NC(=O)[C@H](Cc2ccc(-c3ccnc(N)c3)cc2)NC(=O)[C@H]2[C@@H](Cc3ccc(F)cc3)CCN2C(=O)CNC(=O)[C@H](CCN)NC(=O)[C@H](CCC(N)=O)NC(=O)[C@H](Cc2cncnc2)NC(=O)[C@@](C)(CC(=O)O)NC(=O)[C@H](Cc2c[nH]c3ccccc23)NC(=O)[C@H](CO)NC(=O)C(C)(C)NC1=O [Example 385] (cyclo([X7][4Pal][Phe(4-COOH)]G[Pro(cis-4-F)][Trp(βS-Me,4-F)][Aib]SW[d(αMeD)][Ala(pyrimidin-5-yl)]Q[Dab]G[dPro(3S-(4-F-Bn))]))
